Test [1] addresses PD-1 on tumor infiltrating lymphocytes (human) (UniProt Q15116). The test is described as follows: flow cytometry of tumor digest H3046 stained with anti-PD-1 clone EH12.2H7; percent of CD3+ cells stained PD-1+. On the technique in general: In flow cytometry, cells or beads pass a laser one at a time.
The target is the same in test [2]. The test is described as follows: flow cytometry of tumor digest M1156 stained with anti-PD-1 clone EH12.2H7; percent of CD3+ cells stained PD-1+.
Test [3] shares this target. The test is described as follows: flow cytometry of tumor digest OV8074 stained with anti-PD-1 clone EH12.2H7; percent of CD3+ cells stained PD-1+.

Chain of UniProt Q15116 (Q15116 25-288): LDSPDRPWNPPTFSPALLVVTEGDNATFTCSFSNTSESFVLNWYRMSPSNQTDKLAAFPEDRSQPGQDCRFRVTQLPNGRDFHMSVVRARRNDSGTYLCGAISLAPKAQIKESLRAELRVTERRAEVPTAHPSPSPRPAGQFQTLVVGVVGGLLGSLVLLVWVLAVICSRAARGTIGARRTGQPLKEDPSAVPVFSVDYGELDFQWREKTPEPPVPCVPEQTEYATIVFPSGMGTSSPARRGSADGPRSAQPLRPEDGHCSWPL

B1: anti-PD-1 antibody clone EH12.2H7 (antibody, from another filing, V domains shown)
VH: QVQLQQSGAELAKPGASVQMSCKASGYSFTSSWIHWVKQRPGQGLEWIGYIYPSTGFTEYNQKFKDKATLTADKSSSTAYMQLSSLTSEDSAVYYCARWRDSSGYHAMDYWGQGTSVTVSS
VL: DIVLTQSPASLTVSLGQRATISCRASQSVSTSGYSYMHWYQQKPGQPPKLLIKFGSNLESGIPARFSGSGSGTDFTLNIHPVEEEDTATYYCQHSWEIPYTFGGGTKLEIK
For B1, the Pre-sort % PD-1+ (of CD3+) in test [1] is 13%; in test [2], 93%; in test [3] it was 70%.

The values are drawn from patent US20240269180A1.
